# According to the DeepSol protein solubility set:
# Assay: soluble on expression in E. coli; label from the status in PepcDB or PDB records
row,Sequence,soluble on expression in E. coli
1,MGSDKIHHHHHHMKDVMFYFEIHQPFRLRPTNLYDVKSEQNVFWDEKNEEIFRRVAERSYIPATRNLMEYGIKSSFSITGTAVEQALMYNTKVIDAIDDYVKSGLCEMLSETYYHSLASIWNYDEFKRQVDMHRDLMKRIFNVVPKVFRNTELIYDDRIAEMVKRMGFTSIITEGTDSIVKDHSPNYRYASPSGLNLYLRNYVMSDNISFRFSNTKWKDYPLTADKYAKWINESEGDMVNLFMDYETFGEHQTQETGIFDFMKYLPVYFRDYGIETITISEAEKRHRVKDVLSIPETISWADTRRDLSAWLENEMQIDTFDRIKKCREKAGRLWGYLQTSDIIYYMSIGLEQDFTVHEYFNPYKSPYLAFIYTNYALDKICGSSYGKNEI,not soluble
2,MGNKLFVLDLGEIRVDENFIIANSTFVTPQKPTVSSRLIDIPVSAYLIQCTDATVLYDTGCHPECMGTNGRWPAQSQLNAPYIGASECNLPERLRQLGLSPDDISTVVLSHLHNDHAGCVEYFGKSRLIAHEDEFATAVRYFATGDHSSPYIVKDIEAWLATPRNWDLVGRDERERELAPGVNLLNFGTGHASGMLGLAVRLEKQPGFLLVSDACYTATNYGPPARRAGVLHDTIGYDRTVSHIRQYAESRSLTVLFGHDREQFASLIKSTDGFYE,soluble
3,MNQWLKKKRESLGYTQESFAKEIGIAKTTYSSYEQGYRNPTVQTAKKMAKILQVPWTIFFDEEVLETYDF,not soluble
4,MPLQQTLGVDCQTAADAGGEPHCFAGPVRERRMDSVLVIGGGRFIGRHTVTEFRDAGYDVTMLTRGRRQNPFTNAEVAHIEGDRRERDTLETARERVNPDVVVDCVAYFPEDVRVATDVFADVGAYVYISSGAAYGAERTPKREGETPLAGCTAEQATTDSAETYGPRKAEGDREVFAAAEDGVQAMSVRPTVVYGPYDYTERFAYWVDRVAEYDRVVVPSDGLSLWQMAYVEDVASALRLVAERGTAGEAYNVGDEHAPTLREWVDLLARVHETDVETIGVGERELRAAGLAPDDFPIYRDSPHLLSTAKLRGLGWSSTPHETALAVTVAEHLENDRTGREFGPDRDTEAALIDRLTE,not soluble
5,MGSDKIHHHHHHLSIIEQYLSQAEALFQSKNYSSARMYARKVIKRDDKHLGALSLLGQIHLQQQQYNEAENYFATAAAVDPNAMPVLTGLLAIAEVKQDFFLAKTYLLQLINTQGNVETYQYKLGLVATKVGDMALAEQCFEWCVANDFSEPAVQLNLGHIYKAKGDTEKAANFYHQYNQLSPKQVGVGYWSLADLKQYRFSTDDLTLLQVFATDESLSKQNQALVYFALCKAYEQTQQIDKASESMLLANKIMTLHRPFKQAQFANIVLSLLGHTPSPHIDSLPTASQTPIFIVGMPRSGTTLVEQILACHTDVGATDELPFMERFALQMDMSGGYNARLSQLSASHIDQFRQRYLAEVNHYFSDAPTYVIDKNPNNFLHIGLIKTLFPQAKIINVVRNTVDNGLSVFKQFFSFGHDYSYSFAGISSYWQHYLDIMQHWDRLYPNEILHVCFEQLVREPESQIQRILDYCELTTQAQCFTFYESERAVLTPSASQVRQPMNLKAIGQADKYQAFIPEQIAELDAIAKKAALQFFG,not soluble
6,MRSTEVGRVVEDFIVLPPTPKSKWKLSDFELLHKLGGGNYGDVHLASVKDCNFVCALKRLSIKKLADFDIATQLRREIEIAFNTRHKYLLRTYAYFFDETDIYLIMEPCSNGMLYTELNRVKCFAPPTAARYVAQLAEALLYLHQHHILHRDIKPENILLDHNNNIKLADFGWSVHDPDNRRKTSCGTPEYFPPEIVGRQAYDTSADLWCLGIFCYELLVGKTPFVGKDTDQICKNIHSMHFKIPENIPSEAKDLIANLLLRDGSRRLALHRVVNHQFLLKYYYLPNNLQPPTGKRPRLDAEPTAGKEN,not soluble
7,MTYVDGFVLPVPEGKIDAYRQMAESAGKIWMEHGALQYKECVLEDAKPEMPEDAPETCKITPFGKLAGTKDGETVIFAFIVYKSREHRDEVNKKVMADPRMQEACDENNMPFDPSRMAYGGFKALVDL,not soluble
8,QSRERLVKWLQDAYAMEKEAETMMAAMASRIEHYPELKRRIEQHVEETQQQSAGVQRCLELLNGSIPTAKGMLSSVLASMHAAGNSMMTDEVTKGVGISYAFEHLEIASYRALVVAARSAGEQEVAQICEDILQQEIEMAEWLIEHQEAIVVAFLE,not soluble
9,MSFFDKVKGALTSGREELTRQVGRYKNKKFMQGTVAVCARIAVASDGVSSEEKQKMIGFLRSSEELKVFDTAEVIEFFNKLVTSFDFDLEIGKGETMKYILALKDQPEAAQLALRVGIAVAKSDGNFDDDEKSAVREIARSLGFDPAEFGLLE,soluble
10,MIIDQQLVCYKRLPNWTATTLPEMVTQKHNTKVGTWAKLTILSGTLHFYELDEQGEITAEHLFTPETEIPFVEPQSWHRIAAASDNLECYLSFYCKPEDYMAKKYDTKAHSEVLEAVQSGHIKPGRTLDLGCGHGRNALYLASLGHEVTAVDINNEATQRIQMIADEESYNVRAGYYDINVSALPESETFDFILSTVVFMFLDPNQIPAIIQNMQERTSIGGYNLIVCAMDTEEHPCTMPFPFTFEEGELKNYYSDWELIKYNENLGHLHRLDEHGNPIALQFATMLAKKVTLEHHHHHH,soluble
11,MSLSNTELILIRVTGEDRPGLTASVTEILAKYDATILDIGQADIHNTLSLGILFRSEERHSGFIMKELLFKASSLGVTIRFEPIGTDQYENWVGMQGKNRYILTVLGRKLSARQISAATRVLAEQDLNIDAIKRLTGRIPLDEDKTDTRTRACIEFSVRGTPKDRIAMQERLMQLASEQEMDFSFQQDNMYRRMRRLICFDMDSTLIETEVIDELAIRAGVGDEVKAITESAMRGEIDFTESFTRRVALLKGLDESVMQEIAESLPITEGVDRLMYVLKKYGYKIAILSGGFTYFGQYLQKKYGIDYVYANELEIVDGKLTGRYLGDVVDGKRKAELLRLIAQVEKVDIAQTIAVGDGANDLPMLGIAGLGIAFHAKPKVVANAKQSINTIGLDGVLYFLGFKDSYLNEGHHHHHH,soluble
12,MHHHHHHSSMDDPIGLFVMRPQDGEVTVGGSITFSARVAGASLLKPPVVKWFKGKWVDLSSKVGQHLQLHDSYDRASKVYLFELHITDAQPAFTGGYRCEVSTKDKFDCSNFNLTVHEAM,soluble
13,MGSDKIHHHHHHMEFSQLRIFQAVAEEGSVTRAAERLHRVPSNLSTRLRQLEEQLGVELFLRERQRLQLSPAGKVLLDYANRMSALRDEALGAVRGGQPAGDFVLGTMYSTAATHLPALLARYHQSYPQVNLQVRAAPSGELLEGLLNHTLDAALVDGPPSLAGLDGVPLCDEQLVLITSPEHPAVLTAKDVAGKAVFTFRQGCSYRMRLEAWYAHAHTPMGRVMEIESYQSMLACVIAGAGVAMMAQSMLDSLPGRDRVRVHSLQAPFDQAVTWLMWRQGMRGANLQAWIDLQQSETINQSSECAATA,not soluble
14,SSSESEKDKERLIQAAKMFFFHVQDLASVINTLTELFSRSMNTQILLMAVRNNSYIKDFFEQMLKIFKEMQSVVDARHDKIQKESLCSKVAMAMCSVVQKSTNVEELHQSAKEVFKSAHTPVIISVLNSSNILGSLESSLSHLMKFPIMNLQLSDFYTEDTKEQSDVTTSERTRSPPGSSKTTMIDTLKKLQDVLKTEDSKNPTKSAADLLEQIVKAMGPILEILQKAIKTMEMNISVFKKASDK,soluble
15,MDFYYLPGSAPCRAVQMTAAAVGVELNLKLTNLMAGEHMKPEFLKLNPQHCIPTLVDEDGFVLWESRAIQIYLVEKYGAHDADLAERLYPSDPRRRAVVHQRLFFDVAVLYQRFAEYYEPQIFGQKVPVGDPGRLRSMEQALEFLNTFLEGEQYVAGGDDPTIADLSILATIATYEVAGYDLRRYENVQRWYERTSAIVPGADKNVEGAKVFGRYFTQK,soluble
16,MLIYHNCTTDRTMRKMRHEWGTFGIRIADAFSTMNIDVFDKGEKYNGNEKVELTTTVKNYKPKNNTRKWPAVEAKYLGVVYDNHNKLPKNCEGQKVEVQMMKIDKEQYGWVITDILNE,not soluble
17,GSPEFRWTKEEEETRQMYDMVVKIIDVLRSHNEACQENKDLQPYMPIPHVRDSLIQPHDRKKMKKVWDRAVDFLAANESRVRTETRRIGGADFLVWRWIQPSASCDKILVIPSKVWQGQAFHLDRRLERPHRD,soluble
